Test results from publication PMC2270323, “Phosphorylation-Independent Regulation of the Diguanylate Cyclase WspR” (PLoS Biology, 2008).
“And” between values parts separate entries of the source, which are not always exact repeats. Identical values can stand only once.

How the values were obtained:
[1] = molecular target: WspR from P. syringae DC3000 (full length) (P. syringae DC3000); test: crystal structure; unpublished data: crystal structure of the WspR homolog from P. syringae
[2] = molecular target: the molecule itself; test: crystal structure; c-di-GMP-bound full-length WspR, 2.4 Å, space group C2, two molecules in the asymmetric unit; hanging drop, 0.1 M Tris-Cl pH 8.0, 2.9 M NaCl, 15% xylitol, 20 °C
[3] = molecular target: the molecule itself; test: SEC; c-di-GMP-bound protein as purified, 0.24 mM; Superdex 200 10/300; 25 mM Tris-Cl pH 7.5, 100 mM NaCl, 1 mM DTT
[4] = molecular target: the molecule itself; test: SEC-MALS; stalk mutants as purified (c-di-GMP bound), approximately 0.1 mM; Shodex KW-803; 25 mM Tris-Cl pH 7.5, 100 mM NaCl, 1 mM DTT
[5] = molecular target: the molecule itself; test: SEC; nucleotide-free protein (wild type: PDE-treated, PDE and nucleotide removed; GGAAF as purified), 0.08-0.24 mM; Superdex 200 10/300; 25 mM Tris-Cl pH 7.5, 100 mM NaCl, 1 mM DTT; distribution depends on protein concentration
[6] = molecular target: the molecule itself; test: SEC-MALS; nucleotide-free mutants as purified, 4 mg/ml (approximately 0.1 mM); Shodex KW-803; 25 mM Tris-HCl pH 7.5, 100 mM NaCl, 1 mM DTT
[7] = molecular target: the molecule itself; test: SEC; unpublished data: lysates of E. coli expressing WspR^R242A or WspR^GGAAF, gel filtration

Molecule: WspR from P. syringae DC3000 (full length) (enzyme)
- stoichiometry N [1]: 4

B1: WspR from P. aeruginosa, wild type (full length) (enzyme)
chain: MHNPHESKTDLGAPLDGAVMVLLVDDQAMIGEAVRRSLASEAGIDFHFCSDPQQAVAVANQIKPTVILQDLVMPGVDGLTLLAAYRGNPATRDIPIIVLSTKEEPTVKSAAFAAGANDYLVKLPDAIELVARIRYHSRSYIALQQRDEAYRALRESQQQLLETNLVLQRLMNSDGLTGLSNRRHFDEYLEMEWRRSLREQSQLSLLMIDVDYFKSYNDTFGHVAGDEALRQVAGAIREGCSRSSDLAARYGGEEFAMVLPGTSPGGARLLAEKVRRTVESLQISHDQPRPGSHLTVSIGVSTLVPGGGGQTFRVLIEMADQALYQAKNNGRNQVGLMEQPVPPAPAG
notes: the nucleotide-free form was made by treatment with the PDE SadR/RocR and repurification; The nucleotide state is told in each assay's format; also called WspR^wt; PA3702; source: E. coli BL21(DE3), purified (NiNTA, SEC); also E. coli BL21, in lysate; not shown: His6, C-terminal, kept
- stoichiometry N [2]: 4
- stoichiometry N [3]: 2

B2: WspR^L170D (stalk mutant of P. aeruginosa WspR) (enzyme)
chain: MHNPHESKTDLGAPLDGAVMVLLVDDQAMIGEAVRRSLASEAGIDFHFCSDPQQAVAVANQIKPTVILQDLVMPGVDGLTLLAAYRGNPATRDIPIIVLSTKEEPTVKSAAFAAGANDYLVKLPDAIELVARIRYHSRSYIALQQRDEAYRALRESQQQLLETNLVLQRDMNSDGLTGLSNRRHFDEYLEMEWRRSLREQSQLSLLMIDVDYFKSYNDTFGHVAGDEALRQVAGAIREGCSRSSDLAARYGGEEFAMVLPGTSPGGARLLAEKVRRTVESLQISHDQPRPGSHLTVSIGVSTLVPGGGGQTFRVLIEMADQALYQAKNNGRNQVGLMEQPVPPAPAG
notes: WspR, P. aeruginosa PAO1, locus tag PA3702, with L170D; source: E. coli, purified
- stoichiometry N [4]: 2 and 4

B3: WspR^GGAAF (catalytically dead mutant of P. aeruginosa WspR) (enzyme)
chain: MHNPHESKTDLGAPLDGAVMVLLVDDQAMIGEAVRRSLASEAGIDFHFCSDPQQAVAVANQIKPTVILQDLVMPGVDGLTLLAAYRGNPATRDIPIIVLSTKEEPTVKSAAFAAGANDYLVKLPDAIELVARIRYHSRSYIALQQRDEAYRALRESQQQLLETNLVLQRLMNSDGLTGLSNRRHFDEYLEMEWRRSLREQSQLSLLMIDVDYFKSYNDTFGHVAGDEALRQVAGAIREGCSRSSDLAARYGGAAFAMVLPGTSPGGARLLAEKVRRTVESLQISHDQPRPGSHLTVSIGVSTLVPGGGGQTFRVLIEMADQALYQAKNNGRNQVGLMEQPVPPAPAG
notes: WspR, P. aeruginosa PAO1, locus tag PA3702; the two central glutamates of the GGEEF motif (residues 251-255) replaced by alanines; Purifies nucleotide-free; source: E. coli BL21(DE3), purified (NiNTA, SEC); also E. coli BL21, in lysate; not shown: His6, C-terminal, kept
- stoichiometry N [5]: 4 and 2

B4: WspR^R242A (I-site mutant of P. aeruginosa WspR) (enzyme)
chain: MHNPHESKTDLGAPLDGAVMVLLVDDQAMIGEAVRRSLASEAGIDFHFCSDPQQAVAVANQIKPTVILQDLVMPGVDGLTLLAAYRGNPATRDIPIIVLSTKEEPTVKSAAFAAGANDYLVKLPDAIELVARIRYHSRSYIALQQRDEAYRALRESQQQLLETNLVLQRLMNSDGLTGLSNRRHFDEYLEMEWRRSLREQSQLSLLMIDVDYFKSYNDTFGHVAGDEALRQVAGAIREGCSASSDLAARYGGEEFAMVLPGTSPGGARLLAEKVRRTVESLQISHDQPRPGSHLTVSIGVSTLVPGGGGQTFRVLIEMADQALYQAKNNGRNQVGLMEQPVPPAPAG
notes: WspR, P. aeruginosa PAO1, locus tag PA3702, with R242A; Purifies essentially nucleotide-free; source: E. coli BL21(DE3), purified (NiNTA, SEC); also E. coli BL21, in lysate; not shown: His6, C-terminal, kept
- stoichiometry N [6]: 4
- stoichiometry N [7]: 2

B5: WspR^R198A (I-site mutant of P. aeruginosa WspR) (enzyme)
chain: MHNPHESKTDLGAPLDGAVMVLLVDDQAMIGEAVRRSLASEAGIDFHFCSDPQQAVAVANQIKPTVILQDLVMPGVDGLTLLAAYRGNPATRDIPIIVLSTKEEPTVKSAAFAAGANDYLVKLPDAIELVARIRYHSRSYIALQQRDEAYRALRESQQQLLETNLVLQRLMNSDGLTGLSNRRHFDEYLEMEWRRSLAEQSQLSLLMIDVDYFKSYNDTFGHVAGDEALRQVAGAIREGCSRSSDLAARYGGEEFAMVLPGTSPGGARLLAEKVRRTVESLQISHDQPRPGSHLTVSIGVSTLVPGGGGQTFRVLIEMADQALYQAKNNGRNQVGLMEQPVPPAPAG
notes: WspR, P. aeruginosa PAO1, locus tag PA3702, with R198A; Purifies essentially nucleotide-free; source: E. coli BL21(DE3), purified (NiNTA, SEC)
- stoichiometry N [6]: 2 and 4
